According to PMC6934413:

T1: SmcH-CC100 (Smc hinge with adjacent coiled coil) (Bacillus subtilis, UniProt P51834 400-776)
T1 sequence: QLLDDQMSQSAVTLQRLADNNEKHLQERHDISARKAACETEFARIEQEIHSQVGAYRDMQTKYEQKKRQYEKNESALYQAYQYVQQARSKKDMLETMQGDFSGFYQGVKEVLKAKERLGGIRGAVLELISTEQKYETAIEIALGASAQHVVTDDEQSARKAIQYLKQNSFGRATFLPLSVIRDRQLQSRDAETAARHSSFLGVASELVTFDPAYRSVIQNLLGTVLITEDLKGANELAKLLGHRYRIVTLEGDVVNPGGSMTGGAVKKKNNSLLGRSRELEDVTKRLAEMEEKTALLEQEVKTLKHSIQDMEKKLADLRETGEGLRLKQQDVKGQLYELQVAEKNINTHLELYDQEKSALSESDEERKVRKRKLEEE

T2: SmcHd(EQ,3A-hd);ScpA-N (Bacillus subtilis;Bacillus subtilis, UniProt P51834;P51834;P35154 1-219;983-1186;1-86, K60A;R120A;K122A;EQ|)
T2 sequence 1: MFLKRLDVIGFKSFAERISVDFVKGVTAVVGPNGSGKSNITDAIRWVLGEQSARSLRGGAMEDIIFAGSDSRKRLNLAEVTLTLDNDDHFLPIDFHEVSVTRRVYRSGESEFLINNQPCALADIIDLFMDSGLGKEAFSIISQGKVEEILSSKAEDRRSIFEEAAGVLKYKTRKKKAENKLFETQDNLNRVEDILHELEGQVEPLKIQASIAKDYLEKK
T2 sequence 2: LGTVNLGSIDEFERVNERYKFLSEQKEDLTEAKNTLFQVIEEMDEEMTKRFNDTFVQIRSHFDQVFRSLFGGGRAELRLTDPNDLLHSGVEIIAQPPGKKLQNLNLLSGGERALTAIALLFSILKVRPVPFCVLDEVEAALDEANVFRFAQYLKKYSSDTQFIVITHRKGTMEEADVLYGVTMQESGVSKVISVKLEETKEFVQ
T2 sequence 3: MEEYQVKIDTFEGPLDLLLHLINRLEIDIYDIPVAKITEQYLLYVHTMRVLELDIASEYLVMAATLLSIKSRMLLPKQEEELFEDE

T3: SmcHd(EQ);ScpA-N (Bacillus subtilis;Bacillus subtilis, UniProt P51834;P35154 1-219+=GPG+983-1186;1-86, E1118Q;internal_change|)
T3 sequence 1: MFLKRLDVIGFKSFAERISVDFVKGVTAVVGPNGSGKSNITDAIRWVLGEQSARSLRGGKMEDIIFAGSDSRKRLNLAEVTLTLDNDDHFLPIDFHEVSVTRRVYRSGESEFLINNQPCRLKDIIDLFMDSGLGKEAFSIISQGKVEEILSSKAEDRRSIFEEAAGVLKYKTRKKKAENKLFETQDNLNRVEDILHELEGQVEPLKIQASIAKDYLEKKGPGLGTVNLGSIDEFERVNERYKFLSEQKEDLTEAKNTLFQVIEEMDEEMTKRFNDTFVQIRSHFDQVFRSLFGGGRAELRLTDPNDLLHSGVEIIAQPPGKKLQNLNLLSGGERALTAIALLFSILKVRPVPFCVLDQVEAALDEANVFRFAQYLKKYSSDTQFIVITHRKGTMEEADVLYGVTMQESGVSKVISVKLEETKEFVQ
T3 sequence 2: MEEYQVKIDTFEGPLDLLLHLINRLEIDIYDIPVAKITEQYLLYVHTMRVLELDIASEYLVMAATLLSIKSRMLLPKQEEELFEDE


Key:
[1] = target: Smc-HaloTag with J-Cys (S152C) (Bacillus subtilis) (UniProt P51834); assay: cross-linking
[2] = target: T1, SmcH-CC100 (Smc hinge with adjacent …); assay: fluorescence anisotropy
SmcHd(EQ,3A-hd);ScpA-N = target: T2, SmcHd(EQ,3A-hd);ScpA-N; assay: fluorescence anisotropy
SmcHd(EQ);ScpA-N = target: T3, SmcHd(EQ);ScpA-N; assay: fluorescence anisotropy

Molecule	fraction of Smc-HT in the cross-linked species [1] [%]	binding result [2]	binding result (SmcHd(EQ,3A-hd);ScpA-N)	binding result (SmcHd(EQ);ScpA-N)
Smc-HaloTag with J-Cys (S152C) (from UniProt P51834 1-1186) (natural protein)	66	–	–	–
40 bp random sequence dsDNA (dsDNA) DNA 1: TTAGTTGTTCGTAGTGCTCGTCTGGCTCTGGATTACCCGC DNA 2: GCGGGTAATCCAGAGCCAGACGAGCACTACGAACAACTAA	–	binds	no binding	binds
